In patent US20250340608A1 (PROTAGONIST THERAPEUTICS, published 2025):
Numbered stars: 1 amine (or outer) side, 2 acyl side, 3 side chain; on linkers, the order of the positions; unused ones are H or OH. Bridge positions count the residues as written; N and C are the ends. Square brackets hold non-standard residues; d marks the D form. Side chains are listed from the residue outwards. Ends that are not written are not given here. * marks the point of attachment. Ida = iminodiacetic acid, O=C(CN(CC(=O)[*:3])[*:1])[*:2]; Dip = N[C@H](C(=O)O)C(c1ccccc1)c1ccccc1; γGlu = O=C(O)[C@H](CCC(=O)[*:2])N[*:1]; Palmitoyl = CCCCCCCCCCCCCCCC(=O)*; Myristoyl = CCCCCCCCCCCCCC(=O)*; β3hP = O=C(O)C[C@@H]1CCCN1; Isovaleryl = CC(C)CC(=O)*; Octanoyl = CCCCCCCC(=O)*; Albu = not defined here; dapa = not defined here

T1: human ferroportin (SLC40A1) fused in frame with GFP, stably expressed in HEK293 cells (human, UniProt Q9NP59 1-571)
T1 sequence (looked up): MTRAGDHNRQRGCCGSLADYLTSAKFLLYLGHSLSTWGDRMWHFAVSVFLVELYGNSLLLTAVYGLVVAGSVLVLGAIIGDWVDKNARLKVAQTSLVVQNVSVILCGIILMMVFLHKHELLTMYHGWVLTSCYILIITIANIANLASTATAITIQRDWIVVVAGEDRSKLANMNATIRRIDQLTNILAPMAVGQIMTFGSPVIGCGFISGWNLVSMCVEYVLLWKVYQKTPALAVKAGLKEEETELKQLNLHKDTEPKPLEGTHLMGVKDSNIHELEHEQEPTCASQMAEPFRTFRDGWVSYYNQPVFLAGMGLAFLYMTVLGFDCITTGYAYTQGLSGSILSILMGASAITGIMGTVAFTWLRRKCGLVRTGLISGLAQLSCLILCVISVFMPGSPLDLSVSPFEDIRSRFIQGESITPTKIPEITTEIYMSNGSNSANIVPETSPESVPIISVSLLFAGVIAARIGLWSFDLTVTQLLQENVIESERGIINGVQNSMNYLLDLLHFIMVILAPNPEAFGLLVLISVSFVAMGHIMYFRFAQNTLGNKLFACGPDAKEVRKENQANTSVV

T2: human ferroportin (SLC40A1) fused in frame with GFP, stably expressed in HEK293 cells (human, UniProt Q9NP59 1-571)
T2 sequence (looked up): T1 sequence (looked up)

B1: Compound 227 (peptide)
peptide: Isovaleryl-DTHFPCIKFEPK([dapa-Palmitoyl])SKGCK-NH2
modifications: not fully specified (bridges); cysteine pairing not given here; reading uncertain
B2: Compound 230 (peptide)
peptide: Isovaleryl-DTHFPCIKFEPRSKGCK([dapa-Palmitoyl])K-NH2
modifications: not fully specified (bridges); cysteine pairing not given here; reading uncertain
B3: Compound 224 (peptide)
peptide: DTHFPCIKFEPRSKGCKK
modifications: not fully specified; N-terminal isovaleric acid; K18(isoglu-Palm); C-terminal NH2
B4: Compound 225 (peptide)
peptide: Isovaleryl-DTHFPCIK([dapa-Palmitoyl])FEPRSKGCK-NH2
modifications: not fully specified (bridges); cysteine pairing not given here; reading uncertain
B5: Compound 241 (peptide)
peptide: DTHFPCIKFKPRSKGWECK
modifications: not fully specified; N-terminal isovaleric acid; K10(isoGlu-Palm); C-terminal NH2
B6: Compound 228 (peptide)
peptide: Isovaleryl-DTHFPCIKFEPRSK([dapa-Palmitoyl])GCK-NH2
modifications: not fully specified (bridges); cysteine pairing not given here; reading uncertain

Target: T1, human ferroportin (SLC40A1) fused in …
Assay: cell-based or functional assay

Row | Binder | Potency EC50 [nM] | Potency EC50 (nM)
1 | H-DTHFPCIIFK-NH2 [Compound 55] | 419 | 
2 | H-DTHFPICIFAPRSKGWVCM-NH2 (cysteine pairing not given here) [Compound 22] | 9430 | 
3 | H-DTAFPICIFGPRSKGWVCM-NH2 (cysteine pairing not given here) [Compound 60] | 498 | 
4 | H-DTHFPICIFGPRAKGWVCM-NH2 (cysteine pairing not given here) [Compound 28] | 88 | 
5 | Isovaleryl-DTHFPCIIFGPRSKGWVCK-NH2 (not fully specified (bridges); cysteine pairing not given here) [Compound 11] | 9 | 
6 | H-DTHFPCIIFGPRSKGWVCM-NH2 (cysteine pairing not given here) [Compound 21] | 46 | 
7 | H-DTHFPICIFGPRSKGAVCM-NH2 (cysteine pairing not given here) [Compound 66] | 520 | 
8 | H-DTHFPICIFGPRSKAWVCM-NH2 (cysteine pairing not given here) [Compound 31] | 175 | 
9 | H-DTHFPICIFGPRSKGWACM-NH2 (cysteine pairing not given here) [Compound 47] | 313 | 
10 | H-DTHFPICIFGPRAKGWVCM-NH2 (cysteine pairing not given here) [Compound 16] | 88 | 
11 | H-DTHFPICIFGPHRSKGWVCM-NH2 (cysteine pairing not given here) [Compound 27] | 149 | 
12 | H-DTHFAICIFGPRSKGWVCM-NH2 (cysteine pairing not given here) [Compound 26] | 147 | 
13 | H-DTHFPICIFGPRSKGWVCM-NH2 (not fully specified (bridges); cysteine pairing not given here) [Compound 18] | 125 | 
14 | [Ida]TH[Dip][β3hP]ICIFGPRSKGWVCM-NH2 (disulfide 7-18 (inferred)) [Compound 5] | 17 | 
15 | H-DAHFPCIIF-NH2 [Compound 52] | 388 | 
16 | H-DTHAPICIFGPRSKGWVCM-NH2 (cysteine pairing not given here) [Compound 38] | 254 | 
17 | H-DTHFPICIFGPASKGWVCM-NH2 (cysteine pairing not given here) [Compound 34] | 206 | 
18 | H-DTHFPICIAGPRSKGWVCM-NH2 (cysteine pairing not given here) [Compound 67] | 2470 | 
19 | Isovaleryl-DTHFPICIFGPRSKGWVC-NH2 (not fully specified (bridges); cysteine pairing not given here) [Compound 2] | 5 | 
20 | H-DTHFPICAFGPRSKGWVCM-NH2 (cysteine pairing not given here) [Compound 68] |  | > 10000
21 | H-DTHFPCIFF-NH2 [Compound 56] | 441 | 
22 | H-ATHFPICIFGPRSKGWVCM-NH2 (cysteine pairing not given here) [Compound 33] | 184 | 
23 | H-DTHFPCIAF-NH2 [Compound 51] | 382 | 

Target: T2, human ferroportin (SLC40A1) fused in …
Assay: cell-based or functional assay

Row | Binder | Potency EC50 [nM] | Potency EC50 (nM)
24 | Isovaleryl-DTHFPCIKFEPHSK(Albu)GCK-NH2 (disulfide 6-16 (inferred); reading uncertain) [Compound 265] | 6 | 
25 | B1 | 10 | 
26 | B2 | 10 | 
27 | DTHFPCIKFKPRSKGWVC (N-terminal isovaleric acid; K10(mysteric acid); C-terminal NH2) [Compound 247] | 7 | 
28 | Isovaleryl-ATHFPCIKFGPRSKGWVCK-NH2 (not fully specified (bridges); cysteine pairing not given here) [Compound 234] | 60 | 
29 | Isovaleryl-DTHFPCIKFEPK([γGlu-Palmitoyl])SKGWECK-NH2 (not fully specified (bridges); cysteine pairing not given here) [Compound 242] | 8 | 
30 | B3 | 4 | 
31 | Isovaleryl-DTHFPCIKAGPRSKGWVCK-NH2 (not fully specified (bridges); cysteine pairing not given here) [Compound 237] | 50 | 
32 | Isovaleryl-DTHAPCIKFGPRSKGWVCK-NH2 (not fully specified (bridges); cysteine pairing not given here) [Compound 236] | > 500 | 
33 | Isovaleryl-DTHFPCIKFEPK([γGlu-Palmitoyl])SKGCK-NH2 (not fully specified (bridges); cysteine pairing not given here) [Compound 220] | 5 | 
34 | DTHFPCIKFKPRSKGWVC (N-terminal isovaleric acid; K10(lauric acid); C-terminal NH2) [Compound 248] | 10 | 
35 | Isovaleryl-HFPCIKFEPRSKGWVCK(Octanoyl)-NH2 (disulfide 4-16 (inferred)) [Compound 261] | > 300 | 
36 | B4 | 17 | 
37 | B5 | 6 | 
38 | Isovaleryl-DTAFPCIKFEPRSKEC-NH2 (disulfide 6-16 (inferred)) [Compound 267] |  | > 1000
39 | Isovaleryl-DTHFPCIKFEPRSKK([γGlu-Palmitoyl])CK-NH2 (not fully specified (bridges); cysteine pairing not given here) [Compound 222] | 4 | 
40 | H-DTHFPCIIA-NH2 [Compound 278] |  | > 1000
41 | H-DTHFPCAIF-NH2 [Compound 279] |  | > 1000
42 | [Ida]THFPCIKFEPRSKGWVCK(Myristoyl)-NH2 (disulfide 6-18 (inferred)) [Compound 254] | 20 | 
43 | B6 | 7 | 
44 | DTHFPCIKFKPRSKGWVC (N-terminal isovaleric acid; K10(octanoic acid); C-terminal NH2) [Compound 250] | 30 | 
